Data set [1] can be described thus: in vivo. Details: species or system athymic nude mice. The following applies: athymic nude, mouse, iv, 15 uCi, total radioactivity. How it is done:
(§1) Athymic strains of mice bearing LNCap xenografts were injected via the tail vein with 15 μCi of ^212Pb-DOTAM-PSMA reconstituted in 150-200 μL of saline. At 1 h, 3 h, post injection, while under anesthesia blood was collected by cardiac puncture and mice were sacrificed by cervical dislocation. The heart, lung liver, stomach, pancreas, spleen fat, kidney, muscle, intestines, skin and tumor were collected. Each organ was weighed, and the tissue radioactivity was measured with an automated gamma counter (2470 Wizard2 Gamma Counter, Perkin-Elmer, Waltham, Mass.). The percentage of injected dose per gram of tissue (% ID/g) was calculated. AH measurements were corrected for decay.

Data set [2] concerns LNCap xenografts. In words: in vivo. Details: species or system athymic nude mice. Conditions: mouse. On the procedure:
as §1

Data set [3] is described as follows: in vivo. Details: species or system athymic nude mice. Conditions: athymic nude, mouse, iv, 40 uCi, total radioactivity. How it is done: as §1, with “with 40” for “with 15”, “of ^203Pb-DOTAM-PSMA” for “of ^212Pb-DOTAM-PSMA”, “in 200-250” for “in 150-200”, “1 h and” for “1 h,”, “3 h” for “3 h,”, “calculated. All” for “calculated. AH”
Data set [4] deals with LNCap xenografts. Nature of the data set: in vivo. The arrangement: species or system athymic nude mice. The following applies: mouse. On the procedure: as §1, with “with 40” for “with 15”, “of ^203Pb-DOTAM-PSMA” for “of ^212Pb-DOTAM-PSMA”, “in 200-250” for “in 150-200”, “1 h and” for “1 h,”, “3 h” for “3 h,”, “calculated. All” for “calculated. AH”
The source holds these as a separate data set.

For data set [5], the system named is PSMA-overexpressing LNCap and 22Rv1-derived xenografts. The arrangement: species or system Athymic Nude Mice. Conditions: mouse, in vivo. On the procedure: About 5×10^6 LNCap and 22Rv1 cells suspended in 100 μL of RPMI 1640 with 50% Matrigel (Corning, Corning, N.Y.) were subcutaneously injected into upper flank of 6-7-week-old mice. Xenografts were generated in Athymic Nude Mice (Envigo, Indianapolis, Ind. and Taconic, Rensselaer, N.Y.). When xenograft tumor reached the size of 0.25 cm^3 in diameter, all mice were randomly divided in groups for PET imaging and biodistribution studies.
PET/X-Ray imaging studies were performed using GENISYS^4 scanner (Sofie Bioscience, Curlver City, Calif.). Mice were anesthetized using with isoflurane (2% in 98% oxygen) and their temperature was kept at 38° C. with a heating lamp during injection of the agent and image acquisition All images were corrected for photon attenuation, but scatter correction was not applied. Maximum-Likehood Expectation Maximization was used to create final images volumes. Static PET scans were acquired approximately at 1 h, 2 h, 4 h after intravenous injection of ^64Cu-DOTAM-PSMA in 200 μL volume. The image acquisition time was 10 minutes. VivoQuant software (Invicro, Boston, Mass.) was used to determine the ROI (Sum) for tumor, liver, kidney, muscle and salivary gland which were equivalent to % ID/g uptake of agent at various time points.

Data set [6] is described as follows: in vivo. Details: species or system athymic nude mice. Conditions: athymic nude, mouse, iv, total radioactivity. On the procedure:
(§2) Mice bearing LNCap and 22Rv1 xenografts were injected via the tail vein with 50-100 μCi of ^64Cu-DOTAM-PSMA reconstituted in 150-200 μL of saline. At 1 h, 2 h, and 24 hrs. post injection, while under anesthesia blood was collected by cardiac puncture and mice were sacrificed by cervical dislocation. The heart, lung liver, stomach, pancreas, spleen fat, kidney, muscle, intestines, skin and tumor were collected. Each organ was weighed, and the tissue radioactivity was measured with an automated gamma counter (2470 Wizard2 Gamma Counter, Perkin-Elmer, Waltham, Mass.). The percentage of injected dose per gram of tissue (% ID/g) was calculated. All measurements were corrected for decay.

Data set [7] relates to LNCap and 22Rv1 xenografts. Details: species or system R2G2 strain of mice. The following applies: mouse, in vivo. On the procedure: as §2, with “[…] strains of mice” for “Mice”

One may read the tissue uptake as the percentage of the injected dose found per gram of tissue. As to `NC(=O)CN1CCN(CC(N)=O)CCN(CC(=O)N[C@H](Cc2ccccc2)C(=O)N[C@H](Cc2ccccc2)C(=O)N[C@H](CCCCNC(=O)CCCCCCC(=O)NCCCC[C@H](NC(=O)N[C@@H](CCC(=O)O)C(=O)O)C(=O)O)C(=O)O)CCN(CC(N)=O)CC1` [^212Pb-DOTAM-PSMA, metal not drawn], in “in vivo [1]” (Tumor uptake), the tissue uptake at 1 h was determined as 5.7 ± 0.9 %ID/g and the tissue uptake at 3 h worked out at 7.2 ± 2.6 %ID/g. In “in vivo [1]” (renal retention), the tissue uptake at 1 h stood at 32.2 ± 15.6 %ID/g and the tissue uptake at 3 h came out at 17.7 ± 9.4 %ID/g. Besides, in the data set with LNCap xenografts [2], the “decrease of renal retention” value is 55%; the “uptake in bone and spleen” value was “not uptake of agent in bone and spleen”.
Regarding `NC(=O)CN1CCN(CC(N)=O)CCN(CC(=O)N[C@H](Cc2ccccc2)C(=O)N[C@H](Cc2ccccc2)C(=O)N[C@H](CCCCNC(=O)CCCCCCC(=O)NCCCC[C@H](NC(=O)N[C@@H](CCC(=O)O)C(=O)O)C(=O)O)C(=O)O)CCN(CC(N)=O)CC1` [^203Pb-DOTAM-PSMA, metal not drawn], in the data set “in vivo [3]”, the tissue uptake at 1 h stood at 16.1 ± 0.8 %ID/g and the tissue uptake at 3 h is over 4.8 %ID/g. Also, in the data set with LNCap xenografts [4], the “decrease of renal retention” value is given as 32% and the “normal organs distribution, ^203Pb- versus ^212Pb-DOTAM-PSMA” value is “very similar normal organs distribution”.
Turning to `NC(=O)CN1CCN(CC(N)=O)CCN(CC(=O)N[C@H](Cc2ccccc2)C(=O)N[C@H](Cc2ccccc2)C(=O)N[C@H](CCCCNC(=O)CCCCCCC(=O)NCCCC[C@H](NC(=O)N[C@@H](CCC(=O)O)C(=O)O)C(=O)O)C(=O)O)CCN(CC(N)=O)CC1` [^64Cu-DOTAM-PSMA, metal not drawn], the “highest non-target uptake of agent (organ)” value in data set [5] is given as “liver”. In addition, the “retention in LNCap and 22Rv1-derived tumors (microPET)” value in data set [5] is recorded as “confirmed retention”. Also, in data set [5], the “tumor retention in LNCap and 22Rv1 cancer cells (microPET)” value was “confirmed its tumor retention”. The tissue uptake at 24 h was found to be 10 ± 11.1 %ID/g in “in vivo [6]” (Retention in tumor), 7.8 ± 7.9 %ID/g in the data set “in vivo [6]” (uptake in kidneys) and 12.4 ± 11.9 %ID/g in the data set “in vivo [6]” (uptake in liver). In addition, the tissue uptake at 2 h in the data set “in vivo [6]” (Tumor uptake) worked out at 24.8 ± 31.1 %ID/g; in the data set “in vivo [6]” (off-target accumulation in kidneys), 20 ± 2.9 %ID/g; in the data set “in vivo [6]” (off-target accumulation in liver) it was 45.8 ± 6.2 %ID/g. Moreover, the tissue uptake at 4 h in “in vivo [6]” (Tumor uptake) was 9.7 ± 10.9 %ID/g; in the data set “in vivo [6]” (renal retention), 13 ± 0.6 %ID/g. Further, the “liver retention of trans-chelated Cu64, comparison of strains” value in data set [7] is “higher in R2G2 mice strain compared to NOG strain but it was still lower the one observed in athymic nude”. The “tumor retention, R2G2 strain versus NOG strain” value in data set [7] was “much more favorable in R2G2 strain than NOG strain”.

The values above are taken from US20230097381A1, “COMPOSITION, KIT AND METHOD FOR DIAGNOSIS AND TREATMENT OF PROSTATE CANCER” (RADIOMEDIX, INC., priority 2020, published 2023).
